Data taken from article PMC3795256, “Dynamic Regulation of Ero1α and Peroxiredoxin 4 Localization in the Secretory Pathway*^([image sbox.jpg])” (The Journal of Biological Chemistry, 2013).
Blank lines part the entries; values can stand above or below the binder they belong to.

B1: recombinant human Ero1α (WT) (natural protein, UniProt Q96HE7 24-468, looked up)
chain: EEQPPETAAQRCFCQVSGYLDDCTCDVETIDRFNNYRLFPRLQKLLESDYFRYYKVNLKRPCPFWNDISQCGRRDCAVKPCQSDEVPDGIKSASYKYSEEANNLIEECEQAERLGAVDESLSEETQKAVLQWTKHDDSSDNFCEADDIQSPEAEYVDLLLNPERYTGYKGPDAWKIWNVIYEENCFKPQTIKRPLNPLASGQGTSEENTFYSWLEGLCVEKRAFYRLISGLHASINVHLSARYLLQETWLEKKWGHNITEFQQRFDGILTEGEGPRRLKNLYFLYLIELRALSKVLPFFERPDFQLFTGNKIQDEENKMLLLEILHEIKSFPLHFDENSFFAGDKKEAHKLKEDFRLHFRNISRIMDCVGCFKCRLWGKLQTQGLGTALKILFSEKLIANMPESGPSYEFHLTRQEIVSLFNAFGRISTSVKELENFRNLLQNIH
notes: human Ero1α, wild type, recombinant; also called purified human Ero1α; source: recombinant, purified
B3: recombinant human ERp44 (natural protein, UniProt Q9BS26 30-406, looked up)
chain: EITSLDTENIDEILNNADVALVNFYADWCRFSQMLHPIFEEASDVIKEEFPNENQVVFARVDCDQHSDIAQRYRISKYPTLKLFRNGMMMKREYRGQRSVKALADYIRQQKSDPIQEIRDLAEITTLDRSKRNIIGYFEQKDSDNYRVFERVANILHDDCAFLSAFGDVSKPERYSGDNIIYKPPGHSAPDMVYLGAMTNFDVTYNWIQDKCVPLVREITFENGEELTEEGLPFLILFHMKEDTESLEIFQNEVARQLISEKGTINFLHADCDKFRHPLLHIQKTPADCPVIAIDSFRHMYVFGDFKDVLIPGKLKQFVFDLHSGKLHREFHHGPDPTDTAPGEQAQDVASSPPESSFQKLAPSEYRYTLLRDRDEL
notes: human ERp44, recombinant; a construct made in E. coli probably lacks the signal peptide; source: E. coli BL21 (DE3), purified (HisTrap, Superdex 200, Resource Q)

Experiments:
Settings in all cases: both partners purified
[1] = molecular target: T1, recombinant human PDI (human, UniProt P07237 18-508); assay: SPR; ProteOn XPR36; Ero1α (WT) or Prx4 amine-coupled to a GLC chip, PDI or ERp44 as analyte (0.444–36 μM); 25 °C; 20 mM HEPES-NaOH pH 7.4, 150 mM NaCl, 0.001% Tween, 2 mM EDTA; two-state model
T1 construct: human PDI, recombinant; also called protein disulfide isomerase; source: recombinant, purified
T1 sequence (P07237 18-508): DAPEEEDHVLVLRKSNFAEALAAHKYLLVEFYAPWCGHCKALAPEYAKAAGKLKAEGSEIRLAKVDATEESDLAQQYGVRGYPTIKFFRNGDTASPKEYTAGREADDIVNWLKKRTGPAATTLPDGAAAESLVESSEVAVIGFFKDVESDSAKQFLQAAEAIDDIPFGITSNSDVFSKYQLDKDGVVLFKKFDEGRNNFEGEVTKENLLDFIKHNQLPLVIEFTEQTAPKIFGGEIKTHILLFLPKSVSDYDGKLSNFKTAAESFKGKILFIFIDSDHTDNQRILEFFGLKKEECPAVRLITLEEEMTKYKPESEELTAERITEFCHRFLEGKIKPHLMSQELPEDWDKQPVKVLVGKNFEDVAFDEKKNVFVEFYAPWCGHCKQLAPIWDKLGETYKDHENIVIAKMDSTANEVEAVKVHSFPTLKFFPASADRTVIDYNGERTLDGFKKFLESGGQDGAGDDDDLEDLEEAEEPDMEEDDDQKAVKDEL

[2] = molecular target: B3; assay: SPR; ProteOn XPR36; Ero1α (WT) or Prx4 amine-coupled to a GLC chip, ERp44 as analyte (0.444–36 μM); 25 °C; 20 mM HEPES-NaOH pH 6.4, 150 mM NaCl, 0.001% Tween, 2 mM EDTA; two-state model
[3] = molecular target: B3; assay: SPR; ProteOn XPR36; Ero1α (WT) or Prx4 amine-coupled to a GLC chip, PDI or ERp44 as analyte (0.444–36 μM); 25 °C; 20 mM HEPES-NaOH pH 7.4, 150 mM NaCl, 0.001% Tween, 2 mM EDTA; two-state model
[4] = molecular target: B1; assay: SPR; ProteOn XPR36; Ero1α (WT) or Prx4 amine-coupled to a GLC chip, ERp44 as analyte (0.444–36 μM); 25 °C; 20 mM HEPES-NaOH pH 6.4, 150 mM NaCl, 0.001% Tween, 2 mM EDTA; two-state model
[5] = molecular target: B1; assay: SPR; ProteOn XPR36; Ero1α (WT) or Prx4 amine-coupled to a GLC chip, PDI or ERp44 as analyte (0.444–36 μM); 25 °C; 20 mM HEPES-NaOH pH 7.4, 150 mM NaCl, 0.001% Tween, 2 mM EDTA; two-state model

Binder: B1
Kd [1]: 1.94 µM

Kd [2]: 6.92 µM
Kd [3]: 17.9 µM
B2: recombinant human Prx4 (natural protein, UniProt Q13162 38-271, looked up)
chain: WETEERPRTREEECHFYAGGQVYPGEASRVSVADHSLHLSKAKISKPAPYWEGTAVIDGEFKELKLTDYRGKYLVFFFYPLDFTFVCPTEIIAFGDRLEEFRSINTEVVACSVDSQFTHLAWINTPRRQGGLGPIRIPLLSDLTHQISKDYGVYLEDSGHTLRGLFIIDDKGILRQITLNDLPVGRSVDETLRLVQAFQYTDKHGEVCPAGWKPGSETIIPDPAGKLKYFDKLN
notes: human Prx4, recombinant; a construct made in E. coli probably lacks the signal peptide; also called purified human Prx4; peroxiredoxin 4; source: E. coli BL21 (DE3), purified (HisTrap, Superdex 200, Resource Q)

Binder: B3
Kd [4]: 5.15 µM
Kd [5]: 10.4 µM
